± gives the standard deviation of the averaged measurements.
Test system: ATP
Experiment: switch fluorescence ratio, 500 uM ATP over buffer (Cy3 cluster intensity, sum of 5 cycles each) (fold (ratio)); higher = stronger signal-on switching upon ATP binding; sequences stand for … in TCGTCGGCAGCGTCAGATGTGTATAAGAGACAGTTTTTTTTTTTTTTTTTTTTTTTTT…TC
Conditions: aptamer strand: ATP DNA aptamer (quencher-CACCTGGGGGAGTATTGCGGAGGAAGG + anchor), 100 nM annealed; ATP concentration: 500 uM
Procedure, shortened: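 Between each of five buffer/ATP cycles, the flow-cell was stripped with NaOH and re-annealed. Each cycle imaged Cy3-labelled switching-strand clusters, annealed to 100 nM quencher-labelled ATP aptamer on a modified Illumina MiSeq flow-cell, first in selection buffer and then after 15 min with 500 uM ATP at 22 °C. The fluorescence ratio is summed target-cycle over summed buffer-cycle Cy3 intensity per cluster, averaged per switch-domain sequence, with clusters outside 100-1000 RFU excluded.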
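Note: ATP exposure 15 min at 22 °C before imaging.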

Sequence	switch fluorescence ratio
TTTTTATCAG	0.977 ± 0.038
CTATTAGGTA	0.977 ± 0.0046
GTTAGAGGGA	0.99589 ± 4.1e-05
GGAAGGGGCC	1.03 ± 0.086
TAGGAAAGGG	0.997 ± 0.027
TGAGCATGAA	1 ± 0.024
TTTTTAGCTT	1.04 ± 0.028
ATTGTTGGGG	0.967 ± 0.025
ACGGAGGATT	1.04 ± 0.04
TCGGAGGGTT	1.016 ± 0.0052
GTTTCCAGGT	1.16 ± 0.017
ATGATAGGGA	1.01 ± 0.063
AAGATTGGTG	0.991 ± 0.041
AACGATCTTT	0.9979 ± 0.0084
GGGAAGGAGT	0.992 ± 0.043
CAGGCGTGTG	0.995 ± 0.011
TAGTTTCGGG	0.997 ± 0.05
CGGCTTACCC	1.14 ± 0.2
TTGCTGGGGG	1.01 ± 0.059
CTGTATGTCA	0.99 ± 0.0098
GGGTTGGTAG	0.984 ± 0.026
AAAACGGAAC	1.05 ± 0.028
AGGGGACGGC	1.04 ± 0.0085
TTTAAATAT	1.03 ± 0.086
AGATGTGGGA	1 ± 0.013

Sequence	switch fluorescence ratio
TAGTTGTTGT	0.981 ± 0.049
GCTTCGGCCT	1.02 ± 0.058
ATAGATCAGC	0.995 ± 0.025
ATATAGGTTT	1.01 ± 0.0081
TTGAGTATGC	1.07 ± 0.047
GAGTTAAAAG	1.01 ± 0.02
TAAATGCCGG	1.14 ± 0.26
TGCGTGGGGT	1.01 ± 0.022
AATATGTGTA	0.987 ± 0.018
CCGGGTATGG	1.02 ± 0.016
TATGGTTTGG	0.987 ± 0.028
TAGAGGGGCT	0.993 ± 0.03
ATAAAGAAGC	1.02 ± 0.022
GTTGTTGCTA	0.99 ± 0.034
CATGTGTAAT	1.009 ± 0.0086
GGCTATCGGG	1.02 ± 0.046
TTTTCAATGT	1.04 ± 0.048
TTTTTTGCGA	1.06 ± 0.079
CGTTTTTTCG	1 ± 0.075
CGTGATTATA	0.992 ± 0.0072
GTGCTGCCGG	1.01 ± 0.049
GCTATAGTGG	1.04 ± 0.035
ACCCGGGATT	1.13 ± 0.098
TCGAGCAGTG	1.06 ± 0.013
ATACGACGTG	1.004 ± 0.0083

Sequence	switch fluorescence ratio
AGGAGTTTAG	0.9867 ± 0.0093
TGTCTATTTT	1.019 ± 0.0033
AGGGGGCGCT	1.01 ± 0.043
CTCGGTGTGG	1 ± 0.033
GTGAGGGGGC	0.993 ± 0.1
AATCAGGACA	0.9959 ± 0.0076
GAAGTTAGGT	0.9981 ± 0.0087
TCTCAGGGGT	1.07 ± 0.094
AAGGGGGCTA	0.974 ± 0.027
GCCGGAGTGG	0.982 ± 0.024
TGAAGATGGG	1 ± 0.019
TCGTTTTGCA	0.991 ± 0.013
GCAGGAGTTG	0.978 ± 0.087
AGGTGTTCCG	1.04 ± 0.084
GGGGCCGGGA	1.12 ± 0.19
TTGCATTTGT	1 ± 0.03
GGTATTTTTT	0.997 ± 0.025
TTGTAGGTTT	1.58 ± 0.79
GTTGTTTTGA	0.994 ± 0.022
CGAATTAGAA	0.982 ± 0.042
AAGAAGATCA	0.975 ± 0.016
TCCGGCGGTT	1.01 ± 0.04
GCGGGATCCG	1.06 ± 0.083
GGGTACCGAA	0.981 ± 0.027
TGCAGTCAAG	1.01 ± 0.016

Sequence	switch fluorescence ratio
TCAGTTTATG	0.961 ± 0.011
TAAAAAGGGA	1.02 ± 0.02
TTGCCGGCTC	1.03 ± 0.029
TTCTTTGGGT	0.947 ± 0.036
GTGGGGCGGG	0.999 ± 0.02
TGTTTTCGCA	1 ± 0.021
ATTTAAATCT	1.02 ± 0.023
GGGGTTGGCC	0.986 ± 0.018
GGTTTTTACA	0.981 ± 0.024
CGTCGATAAT	1.03 ± 0.035
ATGTGGTGAC	0.978 ± 0.039
CCATTTTTAC	1.1 ± 0.13
TCGACAAAGG	1.07 ± 0.021
TTTAAATTAA	0.9938 ± 0.0026
GCTATAAAAC	1.03 ± 0.077
AGCGTCATGC	1.04 ± 0.048
GATGAGTTAG	0.973 ± 0.017
CGAGTTTTGC	1.03 ± 0.026
CGGTTGGTAT	0.969 ± 0.051
CATCGTATGG	0.954 ± 0.022
TGTAATCCGG	0.986 ± 0.012
AAATGATCCG	1.08 ± 0.063
ATAAAAAAAG	1.05 ± 0.021
ATTTTTGCTT	0.994 ± 0.019
AGGTTGGGC	1.04 ± 0.034

Sequence	switch fluorescence ratio
TGGTCGCGAT	1.53 ± 0.73
ACGTTTTACA	1.183 ± 0.0076
TAGGGGGGTA	0.982 ± 0.035
ATTTATGTGC	1.01 ± 0.025
GATGTAGGGG	0.999 ± 0.024
GGGACTTCAA	1 ± 0.039
CAGGGAAAAT	0.982 ± 0.012
TTATATATAA	1.01 ± 0.027
CCGGGGTTAG	1.38 ± 0.42
TTGCACGGTC	1.03 ± 0.085
ACTTAGTTTT	1.0386 ± 0.00082
GTAGTGGCGA	1.04 ± 0.026
TTGAACGGGT	1.07 ± 0.1
AGTATGAGTA	1.015 ± 0.0088
AGTCTGTTTC	0.999 ± 0.024
TCAGACTAGA	1.028 ± 0.0045
GACGTTGGGG	0.977 ± 0.01
TTCGAGAAGG	0.972 ± 0.018
ATGGAAAAGC	1 ± 0.056
TTGTAACATT	1.015 ± 0.0014
TTTGAAGCAA	4.2 ± 3.2
TATTGGGGA	0.958 ± 0.011
GTTGCGAATT	0.971 ± 0.038
GTTCTAGATT	1.03 ± 0.067
TTAGTTTTTG	0.98 ± 0.017

Sequence	switch fluorescence ratio
TCACTGTTGT	0.993 ± 0.032
GTCTAGGGGG	1.05 ± 0.089
ATCGGGGGCC	0.973 ± 0.042
TGGGGACGGA	1.02 ± 0.054
TAAAGTGGCG	1.05 ± 0.039
TATGGAGGAG	0.981 ± 0.017
CGTTTGTATC	1.02 ± 0.022
GCGGGTTTGG	1.01 ± 0.018
CGAGAATTGT	0.9301 ± 0.0053
GGGTAAAGTC	0.994 ± 0.047
GCTTTTGTAC	1.05 ± 0.05
GGTTTTTTCT	1.03 ± 0.088
AGAAGGGCGG	0.99 ± 0.037
TGCCATGTGT	1.032 ± 0.0036
GTTACAGAGA	1.003 ± 0.0011
CGGGGTAGCT	0.989 ± 0.035
TTTTTGAGGT	1 ± 0.025
GTAAATTTTT	1.01 ± 0.017
GTTTAATTTG	1 ± 0.025
GTAATAGTTT	1 ± 0.036
AGAGATTTAT	0.988 ± 0.019
TGAACAGGGG	0.9869 ± 0.0078
TTTTTACTAT	1.002 ± 0.0057
ACTGGGGTAG	1.02 ± 0.061
CGTCATTAAA	0.984 ± 0.023

Sequence	switch fluorescence ratio
ACATGCATTA	1.02 ± 0.026
CAGCGGACCG	1.02 ± 0.028
CTTCTGAGGG	1.02 ± 0.012
TCTGATTTGT	1.01 ± 0.013
GGGGAGGGAT	0.996 ± 0.017
AAAGGGGAAC	1.03 ± 0.028
CACGTATTGG	1.11 ± 0.017
TGGGATTGTT	1 ± 0.035
TGGGAAGGCA	1 ± 0.025
GCGCGTATAT	1.07 ± 0.044
ACACGTGCTA	1.01 ± 0.024
TTAGAAGGGG	0.993 ± 0.015
TAGTGGACGG	0.986 ± 0.034
CGAGTAGGTT	1.01 ± 0.011
ATGCAACGTC	0.989 ± 0.049
GGTGGGGTTG	1 ± 0.04
TGTGTATTGT	0.985 ± 0.031
TGGGCCGCCC	1.07 ± 0.12
CTCTAAGGCT	1.007 ± 0.009
AGGTGATGTG	0.998 ± 0.028
GGGGTGGGTT	0.985 ± 0.036
AAAGGAAAAC	1 ± 0.022
TTTATTGTCC	0.975 ± 0.034
CGACGTGAGT	1.036 ± 0.0042
TTCACTAGTG	1.02 ± 0.035

Sequence	switch fluorescence ratio
ATAGGCGGGT	1.004 ± 0.005
GGGTTAGAAA	1 ± 0.043
GGTCATTATT	0.968 ± 0.057
TTGATAACAA	1.04 ± 0.036
ATAAACCTTG	1.16 ± 0.031
TAAGATGGG	1.01 ± 0.019
GGTGTGGAAA	1 ± 0.015
CGGATTTTTT	0.995 ± 0.021
CGGGACAAGT	0.982 ± 0.041
TGCCCTTGCG	0.9827 ± 0.0046
GGAAAATTAA	1 ± 0.033
AAGGCGAGGT	0.994 ± 0.022
TTGAGATATG	0.9989 ± 0.0076
TAATGTGTGG	0.9885 ± 0.0094
CGTGTTGTTG	1.02 ± 0.022
AACGGCCATG	1.02 ± 0.037
GATGGTTGCG	1.02 ± 0.022
GCTGATCGTA	0.9915 ± 0.0057
CGGGGACTTG	0.987 ± 0.029
TGATCGAAGG	0.991 ± 0.034
GGGCTTCAGA	0.987 ± 0.023
GATTATAATC	1.01 ± 0.015
TGTAGCAGCT	1.12 ± 0.045
TGGGCTTAGT	0.992 ± 0.012
AGCTTGGATA	1.017 ± 0.01
